In patent US8986682B2, “Method to increase the absorption of unsaturated fatty acids by human infants” (Swedish Orphan Biovitrum AB (publ), priority 2010, dated 2015):
“Also recorded” adds a separate entry of the source.

How the values were obtained:
[1] = Specific activity with PNPB substrate, sodium cholate as bile-salt activator; format: biochemical; details: after HA-HPLC and SE-HPLC purification
Description: Differences in functional properties are observed between rhBSSL-CHO and BSSL-MAM and from rhBSSL-OVI. The specific activity of rhBSSL-CHO is observed to be higher than that of the other forms of BSSL. The specific activities of BSSL-MAM and rhBSSL-OVI are only 80% of that of rhBSSL-CHO based on mass. Each sample is specifically purified by HA-HPLC and SE-HPLC before determination of specific activity. Specific activity is determined using 4-nitrophenyl ester butyric acid (PNPB) as a substrate for BSSL, and detection of the release of 4-nitrophenol. Briefly, a dilution series of rhBSSL (for example, from 20 to 160 ng activity/mL) is prepared in PBS with 0.1% BSA. 200 μl of these rhBSSL solutions is added to 25 μl of an activation solution containing 20 mM sodium cholate (as bile-salt activator) in PBS with 0.1% BSA. These solutions are preincubated in a spectrophotometer at 27° C. for 5 minutes. Just before measuring, 25 μl of a well-mixed substrate solution containing 5 mM PNPB in PBS-Tween is added. The formation of 4-nitrophenol can be detected by its absorbance at 400 nm and the increase in absorbance is measured during 90 seconds. The active amount of BSSL is determined using a standard curve of an rhBSSL reference standard.

[2] = test system: preterm infants born before week 32 of gestational age; experiment: Change in knee-to-heel length (knemometer), studies BVT.BSSL-020/-021; format: in vivo, human; details: FAS and PP, combined data and by study, one week of treatment
Description: The length of the patient's leg was measured from the knee to the heel using a knemometer provided to the sites. Knee-to-heel length was recorded in millimeters on the CRF. To the extent possible, length was measured at approximately the same time each day and by the same person. Three measurements were made and the mean value was entered on the CRF.
Combined Analysis: • The combined statistical analysis of CFA data used the overall CFA values as calculated for each infant/treatment-period from each of the two individual studies. • Change in length (mm): Change in length was defined as the change in length from knee to heel from Day 1 to Day 7 in the first period and Day 10 to Day 16 in the second period. The Exploratory Efficacy Variables were: • Absorption of DHA and AA: Coefficients of absorption of DHA (C22:6 n-3) and AA (C20:4 n-6) measured in feces samples collected during the final 3 days (72 hours) of each treatment period. • Coefficients of absorption of DHA and AA were calculated using the same approach as used for CFA calculations, but using only the amounts of the individual (C22:6 n-3) and (C20:4 n-6) in samples for DHA and AA, respectively. 7.5.2 Efficacy Analysis Methodology […]

B1: rhBSSL: recombinant human bile-salt-stimulated lipase, SEQ ID. NO. 1, expressed from recombinant CHO cells; used in both clinical trials (protein, listed as Homo sapiens)
chain: AKLGAVYTEGGFVEGVNKKLGLLGDSVDIFKGIPFAAPTKALENPQPHPGWQGTLKAKNFKKRCLQATITQDSTYGDEDCLYLNIWVPQGRKQVSRDLPVMIWIYGGAFLMGSGHGANFLNNYLYDGEEIATRGNVIVVTFNYRVGPLGFLSTGDANLPGNYGLRDQHMAIAWVKRNIAAFGGDPNNITLFGESAGGASVSLQTLSPYNKGLIRRAISQSGVALSPWVIQKNPLFWAKKVAEKVGCPVGDAARMAQCLKVTDPRALTLAYKVPLAGLEYPMLHYVGFVPVIDGDFIPADPINLYANAADIDYIAGTNNMDGHIFASIDMPAINKGNKKVTEEDFYKLVSEFTITKGLRGAKTTFDVYTESWAQDPSQENKKKTVVDFETDVLFLVPTEIALAQHRANAKSAKTYAYLFSHPSRMPVYPKWVGADHADDIQYVFGKPFATPTGYRPQDRTVSKAMIAYWTNFAKTGDPNMGDSAVPTHWEPYTTENSGYLEITKKMGSSSMKRSLRTNFLRYWTLTYLALPTVTDQEATPVPPTGDSEATPVPPTGDSETAPVPPTGDSGAPPVPPTGDSGAPPVPPTGDSGAPPVPPTGDSGAPPVPPTGDSGAPPVPPTGDSGAPPVPPTGDSGAPPVPPTGDAGPPPVPPTGDSGAPPVPPTGDSGAPPVTPTGDSETAPVPPTGDSGAPPVPPTGDSEAAPVPPTDDSKEAQMPAVIRF
Specific activity compared with the other forms of BSSL [1]: higher
Change in knee-to-heel length, rhBSSL versus placebo [2]: No noticeable differences; also recorded: No difference
